Experimental data taken from patent US20210069342A1 (LEGOCHEM BIOSCIENCES, published 2021).

What was measured:
[1] = molecular target: T1, human ROR2 over-expressed on CHO cells (CHO-human ROR2) (human, UniProt Q01974 34-943); test: flow cytometry on CHO-S cells transiently over-expressing human ROR2, FITC anti-human Fc detection, MFI ratio to 2nd Ab alone
T1 construct: whole, on cells; Negative control; also called family protein human ROR2
Text: For this experiment, using cell lines (FIG. 5 and FIG. 7, respectively) transiently (CHO-human ROR1, CHO-human ROR2, CHO-mouse ROR1) or stably (MC38-human ROR1) transfected with ROR1 gene to achieve artificial over-expression of ROR1 protein, an ROR1-expressing cell line (JeKo-1, Mino) (FIG. 6), a non ROR1-expressing cell line (MCF7) (FIG. 6) and a FACSCalibur (BD Biosciences) device was used to measure the degree to which anti-ROR1 antibody and ROR1 were bound, as follows. […] JeKo-1, Mino, CHO-human ROR1, CHO-mouse ROR1 and MC38-human ROR1 are all cell lines which express human ROR1 or mouse ROR1.
Specifically, after dissociating each cell line and washing in PBS, the number of cells was counted and adjusted to 2×10⁵ cells/200 PBS. Then the respective ROR1 monoclonal antibodies prepared in Embodiment 3 were diluted 5 times from 10 /mL or 10 /mL, then reacted for 1 hour at 4° C. After the reaction, the cells were washed in PBS, then FITC-marked constant region (Fc) specific antibody (Goat anti-human IgG FITC conjugate, Fc specific, Sigma, F9512, concentration 20 mg/ml) was suspended in 2 /1×10⁵ cells/200 PBS and reacted for 1 hour at 4° C. As for identification of the degree of expression of the transiently over-expressed human ROR1, human ROR2 and mouse ROR1, a commercially available FACS analysis antibody (anti-ROR1: R&D Systems, FAB 2000G, anti-ROR2: R&D, FAB20641P) was used. After reacting the cells were washed in PBS and analyzed using a FACSCalibur device. The negative control (2nd Ab) was only treated with FITC-marked constant region (Fc) specific antibody. The shifted readings for the respective experimental groups treated with ROR1 monoclonal antibody were compared against the shifted reading for the control group (MFI Ratio: MFI of anti-ROR1/MFI of 2nd Ab).

[2] = molecular target: T2, human ROR1 expressed on the cell surface (human, UniProt Q01973 30-937); test: flow cytometry on Mino cells (MCL), C2E3 IgG, FITC anti-human Fc detection
T2 construct: whole, on cells; also called cell surface-expressed ROR1 antigen; ROR1 on JeKo-1, Mino, CHO-human ROR1, MC38-human ROR1 and other cancer cell lines
Description: (§1) FACS analysis (FACSCalibur, BD Biosciences) was used to analyze the binding of the anti-ROR1 antibody of the present invention to ROR1 in the above cell lines.
(§2) Specifically, the respective cell lines were dissociated and washed in PBS, then the numbers of cells were counted and adjusted to 2×10⁵ cells/200 PBS. Then, they were treated with 10 /mL of the antibody of clone name C2E3 of the ROR1 monoclonal antibodies prepared in Embodiment 3, and reacted for 1 hour at 4° C. After the reaction, the cells were washed in PBS, then FITC-marked constant region (Fc) specific antibody (Goat anti-human IgG FITC conjugate, Fc specific, Sigma, F9512, concentration 20 mg/ml) was suspended in 2 /1×10⁵ cells/200 PBS and reacted for 1 hour at 4° C. After reacting, the cells were washed with PBS and analyzed with the FACSCalibur equipment. The negative control was only treated with FITC-marked constant region (Fc) specific antibody. To compare the degree of ROR1 expression among the respective cancer cell lines, the quotient of dividing the shifted readings for the experimental group treated with the ROR1 monoclonal antibody (C2E3) of the present invention by the shifted readings for the control group (MFI Ratio: MFI of anti-ROR1/MFI or 2nd Ab) is indicated.

[3] = molecular target: T2, human ROR1 expressed on the cell surface; test: flow cytometry on HCT116 cells (colon cancer), C2E3 IgG, FITC anti-human Fc detection
Description: as §1, §2

[4] = molecular target: T3, recombinant human ROR1-His (Sino Biological, 13968-H08H) (human, UniProt Q01973 30-406); test: ELISA, wells coated with human ROR1 protein (sheet: 'human ROR1'; text: ROR1-Fc or ROR1-His), IgG titrated, HRP anti-Fab detection, OD (450-650nm)
T3 construct: extracellular domain; Bought protein; also called ROR1-HIS protein; not shown: His tag
Description: Anti-ROR1 antibody antigen binding affinity was assessed using an ELISA-based solution binding assay. Specifically, a 96-well microtiter plate (Nunc-Immuno Plates), NUNC) was coated for 16 hours at 4° C. with the ROR1 protein described below at a concentration of 1 in PBS solution, and non-specific binding sites were blocked for 2 hours with 3% BSA (bovine serum albumin). Here, the ROR1 protein used was, in the case of human ROR1, the ROR1-Fc or recombinant human ROR1-His (Sino Biological, 13968-H08H) of Embodiment 1. The ROR1-His used in ELISA, as stated in the above sentence, was a protein from the Sino Biological company (13968-H08H), and the ROR1-His of Embodiment 1 or recombinant mouse ROR1 protein was used (Acrobiosystems, RO1-M5221-100 )
Subsequently, the anti-ROR1 antibodies prepared in Embodiment 3 were added at the concentrations stated in FIG. 2 to a 96-well microtiter plate, and binding capacity was analyzed using ELISA as follows. Specifically, after incubating for 2 hours, the plate was washed 5 times with PBS containing 0.05% Tween 20, then HRP-conjugated Fab multiclonal antibody reagent (Perce, 31414) was diluted to 1:10,000 and placed in the washed microtiter plate. After reacting for 1 hour at 37° C., the ROR1 antibodies bonded to the plate were detected. After the reaction, color development was performed using TMB (Tetramethylbenzidine, Sigma, T0440). The enzymatic reaction was stopped using 0.5 mol/L sulfuric acid, and absorbance at 450 nm and 650 nm was measured (450 nm-650 nm) using a micro plate reader (Molecular Device)

[5] = molecular target: T2, human ROR1 expressed on the cell surface; test: flow cytometry on HCC1143 cells (breast cancer), C2E3 IgG, FITC anti-human Fc detection
Description: as §1, §2

[6] = molecular target: T2, human ROR1 expressed on the cell surface; test: flow cytometry on HCC1937 cells (breast cancer), C2E3 IgG, FITC anti-human Fc detection
Description: as §1, §2

[7] = molecular target: T2, human ROR1 expressed on the cell surface; test: flow cytometry on NCI-N87 cells (gastric cancer), C2E3 IgG, FITC anti-human Fc detection
Description: as §1, §2

T2 sequence (Q01973 30-937): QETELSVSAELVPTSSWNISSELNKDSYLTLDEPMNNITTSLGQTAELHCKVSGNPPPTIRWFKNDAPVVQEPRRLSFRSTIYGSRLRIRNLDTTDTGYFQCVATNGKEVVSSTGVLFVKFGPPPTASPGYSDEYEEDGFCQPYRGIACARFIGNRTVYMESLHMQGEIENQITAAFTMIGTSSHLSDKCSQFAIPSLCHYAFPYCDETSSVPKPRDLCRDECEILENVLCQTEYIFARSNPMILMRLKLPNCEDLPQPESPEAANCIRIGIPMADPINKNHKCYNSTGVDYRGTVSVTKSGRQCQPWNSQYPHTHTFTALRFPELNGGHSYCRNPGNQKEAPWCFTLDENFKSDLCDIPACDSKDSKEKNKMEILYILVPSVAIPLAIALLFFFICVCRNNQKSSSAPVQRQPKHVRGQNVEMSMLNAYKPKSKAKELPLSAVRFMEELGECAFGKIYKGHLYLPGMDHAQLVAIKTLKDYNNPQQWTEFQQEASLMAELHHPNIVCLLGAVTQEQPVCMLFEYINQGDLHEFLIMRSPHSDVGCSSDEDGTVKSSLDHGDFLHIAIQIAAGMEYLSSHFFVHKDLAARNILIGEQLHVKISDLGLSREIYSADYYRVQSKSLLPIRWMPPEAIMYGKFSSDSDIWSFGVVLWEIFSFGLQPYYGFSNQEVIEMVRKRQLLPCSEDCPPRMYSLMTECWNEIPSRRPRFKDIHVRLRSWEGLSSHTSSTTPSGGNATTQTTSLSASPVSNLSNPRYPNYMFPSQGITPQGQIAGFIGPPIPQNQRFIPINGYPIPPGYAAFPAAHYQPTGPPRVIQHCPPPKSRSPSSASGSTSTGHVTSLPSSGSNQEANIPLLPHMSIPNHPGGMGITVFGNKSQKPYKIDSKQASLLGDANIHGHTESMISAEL
T1 sequence (Q01974 34-943): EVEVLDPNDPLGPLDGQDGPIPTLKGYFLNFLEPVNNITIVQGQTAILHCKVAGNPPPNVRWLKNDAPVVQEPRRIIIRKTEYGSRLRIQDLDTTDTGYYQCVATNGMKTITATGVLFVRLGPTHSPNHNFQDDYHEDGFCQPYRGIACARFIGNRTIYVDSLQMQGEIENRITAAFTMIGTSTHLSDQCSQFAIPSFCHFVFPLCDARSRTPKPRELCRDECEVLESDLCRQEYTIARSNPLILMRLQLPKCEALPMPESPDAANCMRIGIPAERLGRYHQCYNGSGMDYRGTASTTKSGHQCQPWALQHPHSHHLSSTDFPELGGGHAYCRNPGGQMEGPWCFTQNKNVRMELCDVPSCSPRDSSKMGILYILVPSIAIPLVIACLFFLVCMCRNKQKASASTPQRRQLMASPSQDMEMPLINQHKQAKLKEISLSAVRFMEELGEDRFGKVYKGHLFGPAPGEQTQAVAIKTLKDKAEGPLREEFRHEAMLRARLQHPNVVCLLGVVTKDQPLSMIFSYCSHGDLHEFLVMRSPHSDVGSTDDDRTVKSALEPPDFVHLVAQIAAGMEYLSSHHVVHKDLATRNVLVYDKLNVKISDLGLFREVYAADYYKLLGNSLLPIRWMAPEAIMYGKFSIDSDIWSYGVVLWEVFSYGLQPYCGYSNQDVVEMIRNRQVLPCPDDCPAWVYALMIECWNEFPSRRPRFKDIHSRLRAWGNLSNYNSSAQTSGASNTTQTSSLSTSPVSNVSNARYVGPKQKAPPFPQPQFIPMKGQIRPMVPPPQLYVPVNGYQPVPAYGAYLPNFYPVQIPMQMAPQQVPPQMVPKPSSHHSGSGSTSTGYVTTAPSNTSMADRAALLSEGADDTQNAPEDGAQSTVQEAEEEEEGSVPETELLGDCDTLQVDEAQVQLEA
T3 sequence (Q01973 30-406): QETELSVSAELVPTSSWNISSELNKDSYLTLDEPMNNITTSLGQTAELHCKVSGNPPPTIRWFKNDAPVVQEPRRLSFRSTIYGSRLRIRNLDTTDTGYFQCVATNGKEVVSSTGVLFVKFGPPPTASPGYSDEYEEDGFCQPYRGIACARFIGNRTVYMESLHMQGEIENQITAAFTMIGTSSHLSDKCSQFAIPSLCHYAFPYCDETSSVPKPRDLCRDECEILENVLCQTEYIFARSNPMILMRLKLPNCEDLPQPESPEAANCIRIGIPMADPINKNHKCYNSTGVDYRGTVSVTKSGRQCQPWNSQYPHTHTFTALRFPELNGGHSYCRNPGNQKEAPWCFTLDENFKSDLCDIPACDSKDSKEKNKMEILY

- binding result [1]: no binding
- Mean Fold Ratio (MFI of anti-ROR1 / MFI of 2nd Ab) [2]: 7.2
- Mean Fold Ratio (MFI of anti-ROR1 / MFI of 2nd Ab) [3]: 18
- EC50 (read off the curve) [4]: ~200 pM
- Mean Fold Ratio (MFI of anti-ROR1 / MFI of 2nd Ab) [5]: 3.2
- Mean Fold Ratio (MFI of anti-ROR1 / MFI of 2nd Ab) [6]: 2.7
- Mean Fold Ratio (MFI of anti-ROR1 / MFI of 2nd Ab) [7]: 11.8
B1: anti-ROR1 IgG antibody C2E3 (antibody, V domains shown)
VH: EVQLLESGGGLVQPGGSLRLSCAASGFTFSNYAMSWVRQAPGKGLEWVSSISHNSGSTYYADSVKGRFTISRDNSKNTLYLQMNSLRAEDTAVYYCAKFISARKSLGRSYSNGMDVWGQGTLVTVSS
VL: QSVLTQPPSASGTPGQRVTISCTGSSSNIGSNDVTWYQQLPGTAPKLLIYADSKRPSGVPDRFSGSKSGTSASLAISGLRSEDEADYYCGTWDYSLSGYVFGGGTKLTVLG
notes: Full IgG form (human IgG1 constant region, lambda light chain), expressed in CHO-S cells
